The values below come from patent publication US9931401B2, “Combination comprising anti-fibroblast growth factor receptor 2 (FGFR2) antibody and a tyrosine kinase inhibitor” (Daiichi Sankyo Company, Limited, priority 2013, dated 2018).

Entries after “also recorded” stand apart in the source; their conditions may differ.

The test system of experiment [1] is FGFR2, FRS2, and ERK phosphorylation in stomach cancer cell line SNU-16. Nature of the experiment: FGFR2 signal inhibitory effect on SNU-16 by Western blotting. The experiment is classed as cell-based, human. To be noted: FGF7 10 ng/ml, 10 minutes. Here is the method:
The FGFR2 signal inhibitory effect of the obtained antibody was tested using a stomach cancer cell line SNU-16 endogenously expressing FGFR2. SNU-16 cells (3×10^6) suspended in an RPMI medium containing 0.1% bovine serum albumin were seeded onto a 12-well plate and incubated overnight. The rat FR2-10 antibody was added thereto, and the cells were incubated at 37° C. for 1 hour. Then, 10 ng/ml FGF7 (manufactured by R&D systems, Inc.) was added thereto, and the cells were further incubated for 10 minutes. Subsequently, the cells were lysed with an RIPA buffer (1% NP-40, 0.5% sodium deoxycholate, and 0.1% SDS in PBS) containing Complete Mini (manufactured by Roche Applied Science) and a phosphatase inhibitor (manufactured by Nacalai Tesque Inc.). The lysates were centrifuged to obtain the cell lysis solution, and the protein concentration was determined using BCA protein assay (manufactured by Pierce Biotechnology, Inc.). The lysates were resuspended in a DTT-containing buffer and denatured at 99° C. for 5 minutes. The protein (20 μg/lane) was separated by SDS-PAGE on a 5 to 20% gel. The protein was blotted onto a PVDF membrane (manufactured by Bio-Rad Laboratories, Inc.). The membrane was blocked with TBS-T (2 mM Tris, 50 mM NaCl, and 0.1% Tween-20 (pH 7.4)) containing 5% skimmed milk (MEGMILK SNOW BRAND Co., Ltd.) at room temperature for 1 hour. […]

The next experiment deals with T1, human FGFR2 IIIc (Homo sapiens, UniProt P21802).
T1 construct: a human FGFR2 IIIc variant protein (isoform 1: NP_000132); expressed in transfected cells; host or cells: 293α cells (HEK293 stably transfected with integrin αv and β3)
As to the kind of experiment: Elk1 luciferase reporter gene assay, FGFR2 IIIc-expressing 293α cells, ligand FGF9. The format is cell-based. Particulars: antibody preincubated 1 hour; FGF9 10 ng/ml, 6 hours. Here is the method:
The Elk1 luciferase reporter gene assay was carried out using each hybridoma culture supernatant selected in Example 1)-5. A cell line 293α, which was HEK293 cells stably transfected with integrin αv and integrin β3 expression vectors, was transiently cotransfected with pcDNA-DEST40-FGFR2 IIIb or pcDNA-DEST40, pFA2-Elk1 (manufactured by Stratagene Corp.), pFR-Luc2CP, and pGL4.74[hRluc/TK] (manufactured by Promega Corp.) according to transfection procedures using Lipofectamine 2000 (manufactured by Invitrogen Corp.), inoculated to a white 96-well cell culture plate (manufactured by Corning Inc.), and cultured overnight at 37° C. under 5% CO2 conditions. On the next day, the culture supernatant was removed, and the hybridoma culture supernatant diluted 5-fold with DMEM containing 5% FBS was added at a concentration of 50 μl/well to the plate. […] The firefly/Renilla ratio was calculated to normalize data on each well.
In order to evaluate the signal-neutralizing effects of the obtained antibodies by the Elk1 luciferase reporter gene assay, 293α cells were cotransfected with pcDNA-DEST40-FGFR2 IIIb or pcDNA-DEST40-FGFR2 IIIc constructed in Example 1)-3-1, pFA2-Elk1 (manufactured by Stratagene Corp.), pFR-Luc2CP, and pGL4.74[hRluc/TK] […] The firefly/Renilla ratio was calculated to normalize data on each well. […]

T1 sequence (P21802 22-821): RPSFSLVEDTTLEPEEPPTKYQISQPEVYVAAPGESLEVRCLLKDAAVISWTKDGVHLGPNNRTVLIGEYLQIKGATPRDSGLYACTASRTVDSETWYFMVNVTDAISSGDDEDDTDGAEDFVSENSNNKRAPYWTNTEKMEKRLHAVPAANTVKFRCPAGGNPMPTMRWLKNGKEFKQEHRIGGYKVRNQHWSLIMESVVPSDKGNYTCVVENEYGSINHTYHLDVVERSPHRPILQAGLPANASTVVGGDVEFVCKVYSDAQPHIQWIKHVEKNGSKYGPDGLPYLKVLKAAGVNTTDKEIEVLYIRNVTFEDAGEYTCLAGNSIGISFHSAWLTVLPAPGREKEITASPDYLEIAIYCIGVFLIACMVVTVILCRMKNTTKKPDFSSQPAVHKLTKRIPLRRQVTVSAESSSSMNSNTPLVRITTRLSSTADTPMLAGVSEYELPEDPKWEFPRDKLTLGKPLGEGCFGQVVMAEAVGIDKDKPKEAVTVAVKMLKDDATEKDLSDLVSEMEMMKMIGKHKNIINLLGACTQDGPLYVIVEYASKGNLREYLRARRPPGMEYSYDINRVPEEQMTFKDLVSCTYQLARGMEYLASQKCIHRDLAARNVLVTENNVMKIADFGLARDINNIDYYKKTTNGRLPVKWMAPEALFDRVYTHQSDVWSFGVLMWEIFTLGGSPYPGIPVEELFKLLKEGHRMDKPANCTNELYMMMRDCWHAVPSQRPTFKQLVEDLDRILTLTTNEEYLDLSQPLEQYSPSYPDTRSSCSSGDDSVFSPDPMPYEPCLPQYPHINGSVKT

B1: FR2-10: anti-human FGFR2 rat monoclonal antibody obtained by the method described in Example 1; VH SEQ ID NO: 12, VL SEQ ID NO: 21 (antibody, listed as Rattus norvegicus, V domains shown)
VH: EVQLVESGGGLVQPGRSLKLSCVASGFRFNDFWMTWIRQAPGKGLEWVASITYTGDNTYYAGSVKGRITISRDNAKSTLYLQMNSLRSEDTATYYCTRDDYGGYSPYYMDAWGQGTSVTVSS
VL: DIQMTQSPSSLSAFLGDRVTITCRASQDIGNYLRWFQQKPGKSPRLMIYGATNLANGVPSRFSGSRSGSDYSLTINNLESEDMAIYYCLKHNEYPFTFGSGTKLEIKRA
On to B1, for which, in experiment [1], the “phosphorylation of FGFR2, FRS2, and ERK induced by FGF7” value was “inhibited FGFR2, FRS2, and ERK phosphorylation; also recorded: inhibited the increase in the phosphorylation of these molecules in a concentration dependent manner”.

B2: FR2-13: anti-human FGFR2 rat monoclonal antibody obtained by the method described in Example 1; VH SEQ ID NO: 14, VL SEQ ID NO: 24 (antibody, listed as Rattus norvegicus, V domains shown)
VH: QVKLLQSGAELVKPGASVKLSCKTSGFTFSTSYMSWLKQVPGPSIEWIGWIYAGDGGTKYNQKFKGKATLTVDKSSSTAYMDLSSLTSEDAAVYFCATDGYGDWFAYWGQGTLVTVSS
VL: DIQMTQSPASLSASLGETVTIECRASEDIYSNLAWYQQKPGNSPQLLIYDANILADGVPSRFSGSGSGTQYSLKINSLQSEDVASYFCQQYNNYPPFTFGVGTKLELKRA
Regarding B2, in the experiment with human FGFR2 IIIc, the “ligand FGF9 dependent reporter activation in the FGFR2 IIIc-expressing cells” value is “inhibited”.

B3: FR2-14: anti-human FGFR2 rat monoclonal antibody obtained by the method described in Example 1; VH SEQ ID NO: 16, VL SEQ ID NO: 26 (antibody, listed as Rattus norvegicus, V domains shown)
VH: QVKLLQSGAELVKPGASVKLSCKTSGFTFSTSYMSWLKQVPGPSTEWIGWIYAGDGGTKYNQKFKGKATLTVDKFSSTAYMDLSSLTSEDAAVYFCATDGYGDWFTYWGQGTLVTVSS
VL: DIQMTQSPASLSASLGETVTIECRASEDIYSNLAWYQQKPGNSPQLLIYDANILADGVPSRFSGSGSGTQYSLKINSLQSEDVASYFCQQYNNYPPFTFGAGTKLELKRA
Turning to B3, in the experiment with human FGFR2 IIIc, the “ligand FGF9 dependent reporter activation in the FGFR2 IIIc-expressing cells” value is on record as “inhibited”.
